Reference: IntAct's records for PubMed 18957540

Molecular target: ntrk2_rat Ntrk2 (UniProt Q63604)
Sequence (Q63604 whole entry): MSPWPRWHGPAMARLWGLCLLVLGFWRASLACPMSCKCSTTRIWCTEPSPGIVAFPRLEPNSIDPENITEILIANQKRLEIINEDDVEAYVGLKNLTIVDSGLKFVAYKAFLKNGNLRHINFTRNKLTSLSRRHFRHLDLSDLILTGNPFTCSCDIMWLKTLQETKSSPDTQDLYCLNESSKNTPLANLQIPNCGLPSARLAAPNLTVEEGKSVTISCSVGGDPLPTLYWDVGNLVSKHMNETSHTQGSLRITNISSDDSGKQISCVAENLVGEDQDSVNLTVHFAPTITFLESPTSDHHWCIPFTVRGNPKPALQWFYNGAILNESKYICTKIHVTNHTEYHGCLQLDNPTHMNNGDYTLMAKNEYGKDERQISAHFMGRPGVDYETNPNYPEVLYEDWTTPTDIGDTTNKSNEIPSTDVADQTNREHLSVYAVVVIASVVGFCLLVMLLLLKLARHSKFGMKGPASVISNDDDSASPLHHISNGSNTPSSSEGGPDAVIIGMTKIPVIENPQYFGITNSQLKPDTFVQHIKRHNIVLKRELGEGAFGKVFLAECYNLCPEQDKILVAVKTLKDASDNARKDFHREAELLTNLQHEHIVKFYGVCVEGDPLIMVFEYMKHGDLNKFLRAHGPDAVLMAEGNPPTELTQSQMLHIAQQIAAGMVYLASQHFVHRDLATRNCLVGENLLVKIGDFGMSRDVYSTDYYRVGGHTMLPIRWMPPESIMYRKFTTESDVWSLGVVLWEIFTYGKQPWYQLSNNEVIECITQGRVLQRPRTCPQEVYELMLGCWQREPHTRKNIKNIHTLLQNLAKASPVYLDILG

Protein farnesyltransferase/geranylgeranyltransferase type-1 subunit alpha (Rattus norvegicus (Rat)) (from UniProt Q04631) Y166A
effect of a mutation on the interaction: decreasing interaction strength
